According to US20220064312A1 (SHIONOGI, published 2022):

Key:
human CCR8 [1] = molecular target: T1, human CCR8 (human, UniProt P51685 1-355); assay: cell-based or functional assay
hCCR8 (Y17A) = hCCR8 (Y17A) (human, UniProt P51685 1-355); assay: flow cytometry, transfected Expi293 cells
mouse CCR8 = molecular target: T2, mouse CCR8 (mouse, UniProt P56484 1-353); assay: flow cytometry, transfected Expi293 cells
T2 construct: also called mCCR8
T2 sequence: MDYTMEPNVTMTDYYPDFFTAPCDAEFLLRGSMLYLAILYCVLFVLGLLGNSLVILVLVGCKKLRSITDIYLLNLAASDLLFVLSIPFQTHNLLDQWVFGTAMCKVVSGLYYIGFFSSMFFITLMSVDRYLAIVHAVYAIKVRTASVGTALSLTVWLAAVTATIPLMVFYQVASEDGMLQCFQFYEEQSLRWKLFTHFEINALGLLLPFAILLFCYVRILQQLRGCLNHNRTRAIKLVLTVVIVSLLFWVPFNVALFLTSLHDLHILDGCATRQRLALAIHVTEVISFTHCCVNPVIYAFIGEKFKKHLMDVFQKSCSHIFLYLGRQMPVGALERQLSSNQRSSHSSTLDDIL

human CCR4 = molecular target: T3, human CCR4 (human, UniProt P51679 1-360); assay: flow cytometry, transfected Expi293 cells
T3 construct: also called hCCR4
T3 sequence: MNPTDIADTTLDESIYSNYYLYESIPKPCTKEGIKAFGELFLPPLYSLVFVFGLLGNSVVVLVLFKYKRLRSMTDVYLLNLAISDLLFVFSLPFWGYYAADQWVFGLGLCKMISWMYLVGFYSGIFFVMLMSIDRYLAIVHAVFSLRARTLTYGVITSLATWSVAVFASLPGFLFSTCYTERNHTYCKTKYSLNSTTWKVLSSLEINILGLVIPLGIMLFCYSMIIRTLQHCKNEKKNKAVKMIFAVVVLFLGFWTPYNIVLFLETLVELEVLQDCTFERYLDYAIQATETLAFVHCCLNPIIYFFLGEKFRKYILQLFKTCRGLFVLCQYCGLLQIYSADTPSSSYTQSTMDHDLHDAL

hCCR8 (K35A) = hCCR8 (K35A) (human, UniProt P51685 1-355); assay: flow cytometry, transfected Expi293 cells
N-ter hCCR4-hCCR8 = molecular target: T4, N-ter hCCR4-hCCR8 (human); assay: flow cytometry, transfected Expi293 cells
T4 construct: chimera on Expi293 cells; remaining hCCR8 ranges derived from the stated swapped ranges and the 355-residue length; also called N-terminal region human CCR4-substituted human CCR8
T4 chain: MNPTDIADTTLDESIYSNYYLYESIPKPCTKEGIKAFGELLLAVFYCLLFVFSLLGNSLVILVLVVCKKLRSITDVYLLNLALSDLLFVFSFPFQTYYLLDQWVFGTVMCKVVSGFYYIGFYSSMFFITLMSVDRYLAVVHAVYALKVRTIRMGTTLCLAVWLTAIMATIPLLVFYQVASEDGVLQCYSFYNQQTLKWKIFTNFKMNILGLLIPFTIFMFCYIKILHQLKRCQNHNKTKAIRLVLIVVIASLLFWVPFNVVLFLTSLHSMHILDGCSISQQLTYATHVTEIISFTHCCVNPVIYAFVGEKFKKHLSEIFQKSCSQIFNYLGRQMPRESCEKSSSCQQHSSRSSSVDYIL

loop1 hCCR4-hCCR8 = molecular target: T5, loop1 hCCR4-hCCR8 (human, UniProt P51685 1-355); assay: flow cytometry, transfected Expi293 cells; Δ = significantly reduced vs hCCR8
T5 construct: chimera on Expi293 cells; hCCR8 ranges derived; also called loop 1-human CCR4-substituted human CCR8

loop2 hCCR4-hCCR8 = molecular target: T6, loop2 hCCR4-hCCR8 (human, UniProt P51685 1-355); assay: as above
T6 construct: chimera on Expi293 cells; hCCR8 ranges derived; also called loop2-human CCR4-substituted human CCR8

human CCR8 [2] = molecular target: T1, human CCR8; assay: cell-based or functional assay; remark: listed apart in the source

T1 sequence (P51685 whole entry): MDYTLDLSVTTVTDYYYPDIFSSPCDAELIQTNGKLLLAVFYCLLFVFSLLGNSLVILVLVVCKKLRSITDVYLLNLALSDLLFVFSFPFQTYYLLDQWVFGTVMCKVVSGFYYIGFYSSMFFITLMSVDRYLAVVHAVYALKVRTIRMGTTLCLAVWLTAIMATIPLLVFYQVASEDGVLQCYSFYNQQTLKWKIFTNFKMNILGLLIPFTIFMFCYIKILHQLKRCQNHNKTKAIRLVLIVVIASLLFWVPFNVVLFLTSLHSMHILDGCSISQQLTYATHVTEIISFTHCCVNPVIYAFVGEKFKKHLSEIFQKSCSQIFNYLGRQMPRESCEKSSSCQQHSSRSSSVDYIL
hCCR8 (Y17A), sequence (P51685 whole entry Y17A): as the sequence (P51685 whole entry) above, with Y17A counted along it

- Neutralizing Activity IC50 (nM), Ca2+ influx by 100 nM hCCL1 (human CCR8 [1]): 0.32 nM
- binding result (hCCR8 (Y17A)): no binding
- binding result (mouse CCR8): no binding
- binding result (human CCR4): no binding
- binding result (hCCR8 (K35A)): no binding
- binding result (N-ter hCCR4-hCCR8): no binding
- binding result (loop1 hCCR4-hCCR8): binds
- binding result (loop2 hCCR4-hCCR8): binds
- IC50 (nM), Ca2+ influx by 200 nM hCCL1 (human CCR8 [2]): 0.36 nM
B1: 1H4 (antibody, V domains shown)
VH: EVQLVESGGRLVQPKGSLKLSCAASGFTFNTYAMYWIRQAPGKGLEWVARIRSKSNNYATYYADSVKDRFTISRDDSQSMLYLQMNNLKTEDTAMYYCVRARFYYSDYGYAMDYWGQGTSVTVSS
VL: DIVMTQAAPSVPVTPGESVSISCRSSKSLLHSNGNTYLYWFLQRPGQSPQLLIYRMSNLASGVPDRFSASGSGTAFTLRISRVEAEDVGVYYCMQHLEYPLTFGAGTKLELKR
notes: mouse hybridoma antibody
